Experiments:
[1] = target: T1, Fc tagged human TNFR1 (Sino Biological) (human, UniProt P19438 22-211, limits assumed); assay: SPR, Biacore single cycle kinetics, stability study, before freezing (t=0)
T1 construct: Bought reagent; also called hTNFR1; hTNFR1-Fc; not shown: Fc tag of the bought protein
T1 sequence (looked up): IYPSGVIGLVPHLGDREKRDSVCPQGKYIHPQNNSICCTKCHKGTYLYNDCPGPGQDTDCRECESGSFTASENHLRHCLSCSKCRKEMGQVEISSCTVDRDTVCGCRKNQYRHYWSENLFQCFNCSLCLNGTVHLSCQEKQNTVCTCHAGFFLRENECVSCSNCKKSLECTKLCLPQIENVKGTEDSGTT
Protocol: (§1) Due to the limit in the number of available flow cells for analysis (three Fc per analysis, Fc2, Fc3 and Fc4, with Fc1 always being used as blank reference for non-specific subtraction), receptor binding was assessed in two separate overlapping runs using either: hTNFR1 (Fc2), hTNFR2 (Fc3) and mTNFR1 (Fc4), or; hTNFR1 (Fc2), […] and mTNFR2 (Fc4). Receptors were diluted in running buffer to a concentration of ˜4 μg/mL and at the start of each cycle loaded onto Fc2, Fc3 and Fc4 of a Protein A chip (GE Healthcare, Little Chalfont, UK) at a flow rate of 10 μL/min to give an RU of 40-100. The surface was then allowed to stabilise. Single cycle kinetic data was obtained at a flow rate of 45 μL/min. […] The association phase for the three injections of increasing concentrations of TNF was monitored for 240 seconds and a single dissociation phase was measured for 2700 seconds following the last injection of TNF. Regeneration of the Protein A surface was conducted using 10 mM glycine-HCl pH 1.5. The signal from the reference channel Fc1 (no receptor) was subtracted from that of Fc2, Fc3 and Fc4 to correct for differences in non-specific binding to a reference surface.
(§2) At day zero (prior to freezing) and following thawing on ice after 3 months and 1 year the following assays were performed: [0341] SDS-PAGE [0342] OD280 nm [0343] Single cycle Biacore for binding to hTNFR1, hTNFR2 and mTNFR1

[2] = target: T2, Fc tagged human TNFR2 (Sino Biological) (human, UniProt P20333 23-257); assay: as above
T2 construct: Bought reagent; also called hTNFR2; hTNFR2-Fc; not shown: Fc tag of the bought protein
T2 sequence (looked up): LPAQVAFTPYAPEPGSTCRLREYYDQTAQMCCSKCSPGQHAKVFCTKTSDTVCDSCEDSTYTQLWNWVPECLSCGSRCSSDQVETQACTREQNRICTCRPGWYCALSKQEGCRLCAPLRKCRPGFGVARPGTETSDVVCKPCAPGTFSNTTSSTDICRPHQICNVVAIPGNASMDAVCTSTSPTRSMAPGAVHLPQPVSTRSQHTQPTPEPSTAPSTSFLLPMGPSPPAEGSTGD
Protocol: as §1, §2

[3] = target: T3, Fc tagged mouse TNFR1 (Sino Biological) (mouse, UniProt P25118 22-212, limits assumed); assay: as above
T3 construct: Bought reagent; also called mTNFR1; mTNFR1-Fc; not shown: Fc tag of the bought protein
T3 sequence (looked up): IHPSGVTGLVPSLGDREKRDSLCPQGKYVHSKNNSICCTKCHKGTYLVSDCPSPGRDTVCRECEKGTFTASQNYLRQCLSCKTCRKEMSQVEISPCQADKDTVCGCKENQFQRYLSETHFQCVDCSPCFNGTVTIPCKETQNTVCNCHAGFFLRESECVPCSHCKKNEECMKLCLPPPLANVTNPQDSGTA
Protocol: as §1, §2

[4] = target: T1, Fc tagged human TNFR1 (Sino Biological); assay: SPR, Biacore single cycle kinetics, stability study, after 1 year at -20° C.
Protocol: as §1, §2

[5] = target: T2, Fc tagged human TNFR2 (Sino Biological); assay: as above
Protocol: as §1, §2

[6] = target: T3, Fc tagged mouse TNFR1 (Sino Biological); assay: as above
Protocol: as §1, §2

[7] = target: T1, Fc tagged human TNFR1 (Sino Biological); assay: SPR, Biacore single cycle kinetics, stability study, after 1 year at -80° C.
Protocol: as §1, §2

[8] = target: T2, Fc tagged human TNFR2 (Sino Biological); assay: as above
Protocol: as §1, §2

[9] = target: T3, Fc tagged mouse TNFR1 (Sino Biological); assay: as above
Protocol: as §1, §2

[10] = target: T4, Fc tagged mouse TNFR2 (Sino Biological) (mouse, UniProt P25119 23-258); assay: SPR (Biacore T200) single cycle kinetics, Fc-tagged receptor captured on Protein A chip, TNF protein as analyte at 1.67-15 nM
T4 construct: Bought reagent; also called mTNFR2; mTNF2; not shown: Fc tag of the bought protein
T4 sequence (looked up): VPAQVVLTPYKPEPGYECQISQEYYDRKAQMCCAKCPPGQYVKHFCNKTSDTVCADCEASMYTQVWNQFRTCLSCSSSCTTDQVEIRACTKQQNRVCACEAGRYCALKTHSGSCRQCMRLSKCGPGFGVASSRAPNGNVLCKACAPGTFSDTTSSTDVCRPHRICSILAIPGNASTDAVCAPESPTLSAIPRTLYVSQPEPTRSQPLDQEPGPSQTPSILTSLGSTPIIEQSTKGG
Protocol: Single cycle kinetic analysis was performed using a Biacore T200 (serial no. 1909913) running Biacore T200 Evaluation Software V2.0.1 (Uppsala, Sweden). All experiments were run at 25° C. with HBS-P+ running buffer (pH 7.4) (GE Healthcare, Little Chalfont, UK).
as §1
Controls were used to ensure the integrity of the receptors during the Biacore run.

Kd [1]: 17.5 pM
Kd [2]: 198 pM
Kd [3]: 62.4 pM
Kd [4]: 39 pM
Kd [5]: 210 pM
Kd [6]: 85.1 pM
Kd [7]: 40.7 pM
Kd [8]: 349 pM
Kd [9]: 86.4 pM
binding result [10]: no binding (tested: 15 nM)
B1: TNF mutein B2 (ligand)
chain: VRSSSRTPSDKPVAHVVANPQAEGQLQWLNRRANALLANGVELRDNQLVVPSEGLYLIYSQVLFKGQGCPSTHVLLTHTISRITASYSGKVNLLSAIKSPCQRETPEGAEAKPWYEPIYLGGVFQLEKGDRLSAEINRPDYLDFAESGQVYFGIIAL
notes: Human TNF mutein, TASYSG at positions 84-89; not shown: C-terminal FLAG tag and His6 tag from vector pANT65
